Assay results as given in US20250243277A1 (AVACTA LIFE SCIENCES, published 2025).
Where a chain is given by its changes, count along the chain named.

B1: Clone 114 (designed binder)
chain: MIPGGLSEAKPATPEIQEIVDKVKPQLEEKTGETYGKLEAVQYKTQVDQSSDLAKLWGTNYYIKVRAGDNKYMHLKVFKSLWNLNSDKSSEDLVLTGYQVDKNKDDELTGF
notes: His-tagged
B2: Clone 130 (designed binder)
chain: MIPGGLSEAKPATPEIQEIVDKVKPQLEEKTGETYGKLEAVQYKTQVVPQPEWNEWGVTNYYIKVRAGDNKYMHLKVFKSLIFWNEKLIREDLVLTGYQVDKNKDDELTGF
notes: His-tagged
B3: Clone 117 (designed binder)
chain: MIPGGLSEAKPATPEIQEIVDKVKPQLEEKTGETYGKLEAVQYKTQVDHEVRKTYEFGTNYYIKVRAGDNKYMHLKVFKSLWFGGWPLAQEDLVLTGYQVDKNKDDELTGF
notes: His-tagged
B4: Clone 126 (designed binder)
chain: MIPGGLSEAKPATPEIQEIVDKVKPQLEEKTGETYGKLEAVQYKTQVVYEPHHPYPWGTNYYIKVRAGDNKYMHLKVFKSLQYHPPYERFEDLVLTGYQVDKNKDDELTGF
notes: His-tagged
B5: Clone 135 (designed binder)
chain: MIPGGLSEAKPATPEIQEIVDKVKPQLEEKTGETYGKLEAVQYKTQVVAVYPTFKYGTNYYIKVRAGDNKYMHLKVFKSLKVEYLDFITEDLVLTGYQVDKNKDDELTGF
notes: His-tagged
B6: Clone 131 (designed binder)
chain: MIPGGLSEAKPATPEIQEIVDKVKPQLEEKTGETYGKLEAVQYKTQVVNQWEWPVDLGTNYYIKVRAGDNKYMHLKVFKSLKVYRTHHIFEDLVLTGYQVDKNKDDELTGF
notes: His-tagged
B7: Clone 123 (designed binder)
chain: MIPGGLSEAKPATPEIQEIVDKVKPQLEEKTGETYGKLEAVQYKTQVDNLVYYQRDWGTNYYIKVRAGDNKYMHLKVFKSLEPGRWRWPKEDLVLTGYQVDKNKDDELTGF
notes: His-tagged
B8: Clone 134 (designed binder)
chain: MIPGGLSEAKPATPEIQEIVDKVKPQLEEKTGETYGKLEAVQYKTQVVFWFEDIQWLGTNYYIKVRAGDNKYMHLKVFKSLRFREDVDIREDLVLTGYQVDKNKDDELTGF
notes: His-tagged
B9: Clone 162 (designed binder)
chain: MIPGGLSEAKPATPEIQEIVDKVKPQLEEKTGETYGKLEAVQYKTQVVFTFSSIGWWGTNYYIKVRAGDNKYMHLKVFKSLRQLLDKPRYEDLVLTGYQVDKNKDDELTGF
notes: His-tagged
B10: Clone 29 (designed binder)
chain: MIPGGLSEAKPATPEIQEIVDKVKPQLEEKTGETYGKLEAVQYKTQVVFTFVDIHWYGTNYYIKVRAGDNKYMHLKVFKSLRKPKDRQYTEDLVLTGYQVDKNKDDELTGF
notes: His-tagged
B11: Clone 176 (designed binder)
chain: MIPGGLSEAKPATPEIQEIVDKVKPQLEEKTGETYGKLEAVQYKTQVVFWYPEIGWLGTNYYIKVRAGDNKYMHLKVFKSLRSRYPNYTAEDLVLTGYQVDKNKDDELTGF
notes: His-tagged
B12: Clone 128 (designed binder)
chain: MIPGGLSEAKPATPEIQEIVDKVKPQLEEKTGETYGKLEAVQYKTQVVPEVDKAEWWGTNYYIKVRAGDNKYMHLKVFKSLIRYGLRHEREDLVLTGYQVDKNKDDELTGF
notes: His-tagged
B13: Clone 124 (designed binder)
chain: MIPGGLSEAKPATPEIQEIVDKVKPQLEEKTGETYGKLEAVQYKTQVDQVLWEIFEHGTNYYIKVRAGDNKYMHLKVFKSLFHQWSPALHEDLVLTGYQVDKNKDDELTGF
notes: His-tagged
B14: Clone 196 (designed binder)
chain: MIPGGLSEAKPATPEIQEIVDKVKPQLEEKTGETYGKLEAVQYKTQVVLLWTPPYVDGTNYYIKVRAGDNKYMHLKVFKSLGWNDDHSVGEDLVLTGYQVDKNKDDELTGF
notes: His-tagged
B15: Clone 240 (designed binder)
chain: MIPGGLSEAKPATPEIQEIVDKVKPQLEEKTGETYGKLEAVQYKTQVVLLYQAPFVQGTNYYIKVRAGDNKYMHLKVFKSLGWDLEYSQKEDLVLTGYQVDKNKDDELTGF
notes: His-tagged
B16: Clone 19 (designed binder)
chain: B14 chain with L49Y, L50R, W51F, T52G, D57K, D85A, D86F, H87S, V89P, G90A
notes: His-tagged
B17: Clone 161 (designed binder)
chain: MIPGGLSEAKPATPEIQEIVDKVKPQLEEKTGETYGKLEAVQYKTQVVVLERPPYVKGTNYYIKVRAGDNKYMHLKVFKSLNWEGEPSGVEDLVLTGYQVDKNKDDELTGF
notes: His-tagged
B18: Clone 16 (designed binder)
chain: MIPGGLSEAKPATPEIQEIVDKVKPQLEEKTGETYGKLEAVQYKTQVVHIQWPPWVEGTNYYIKVRAGDNKYMHLKVFKSLGWTSDNSNFEDLVLTGYQVDKNKDDELTGF
notes: His-tagged
B19: Clone 154 (designed binder)
chain: MIPGGLSEAKPATPEIQEIVDKVKPQLEEKTGETYGKLEAVQYKTQVVPQIGAPYVKGTNYYIKVRAGDNKYMHLKVFKSLGWNSNIGVLEDLVLTGYQVDKNKDDELTGF
notes: His-tagged
B20: Clone 219 (designed binder)
chain: MIPGGLSEAKPATPEIQEIVDKVKPQLEEKTGETYGKLEAVQYKTQVVPLTIPPFVEGTNYYIKVRAGDNKYMHLKVFKSLGWQQVNDVKEDLVLTGYQVDKNKDDELTGF
notes: His-tagged
B21: Clone 12 (designed binder)
chain: B14 chain with L49Q, W51K, T52F, D57S, N84D, D86K, H87P, S88E, V89W, G90D
notes: His-tagged
B22: Clone 125 (designed binder)
chain: MIPGGLSEAKPATPEIQEIVDKVKPQLEEKTGETYGKLEAVQYKTQVVTRLHFPQYQGTNYYIKVRAGDNKYMHLKVFKSLEIEVNPYANEDLVLTGYQVDKNKDDELTGF
notes: His-tagged
B23: Clone 127 (designed binder)
chain: MIPGGLSEAKPATPEIQEIVDKVKPQLEEKTGETYGKLEAVQYKTQVVTQAIPWREWGTNYYIKVRAGDNKYMHLKVFKSLIPEWPKDASEDLVLTGYQVDKNKDDELTGF
notes: His-tagged
B24: Clone 133 (designed binder)
chain: MIPGGLSEAKPATPEIQEIVDKVKPQLEEKTGETYGKLEAVQYKTQVVLYSESRDYKGTNYYIKVRAGDNKYMHLKVFKSLHAYKGSIYREDLVLTGYQVDKNKDDELTGF
notes: His-tagged
B25: Clone 120 (designed binder)
chain: MIPGGLSEAKPATPEIQEIVDKVKPQLEEKTGETYGKLEAVQYKTQVDPEVSITRWQGTNYYIKVRAGDNKYMHLKVFKSLYETHGNIITEDLVLTGYQVDKNKDDELTGF
notes: His-tagged
B26: Clone 119 (designed binder)
chain: MIPGGLSEAKPATPEIQEIVDKVKPQLEEKTGETYGKLEAVQYKTQVDSWVFKPFYHGTNYYIKVRAGDNKYMHLKVFKSLSGPEFFSRHEDLVLTGYQVDKNKDDELTGF
notes: His-tagged
B27: Clone 132 (designed binder)
chain: MIPGGLSEAKPATPEIQEIVDKVKPQLEEKTGETYGKLEAVQYKTQVVERYHFPQFTGTNYYIKVRAGDNKYMHLKVFKSLNHDQVRWNLEDLVLTGYQVDKNKDDELTGF
notes: His-tagged
B28: Clone 13 (designed binder)
chain: MIPGGLSEAKPATPEIQEIVDKVKPQLEEKTGETYGKLEAVQYKTQVVLFREEKYNYGTNYYIKVRAGDNKYMHLKVFKSLAWGEVVSNAEDLVLTGYQVDKNKDDELTGF
notes: His-tagged
B29: Clone 113 (designed binder)
chain: MIPGGLSEAKPATPEIQEIVDKVKPQLEEKTGETYGKLEAVQYKTQVDWVTRHHTLVGTNYYIKVRAGDNKYMHLKVFKSLPPFKHWHLEDLVLTGYQVDKNKDDELTGF
notes: His-tagged
B30: Clone 116 (designed binder)
chain: B29 chain
notes: His-tagged
B31: Clone 136 (designed binder)
chain: MIPGGLSEAKPATPEIQEIVDKVKPQLEEKTGETYGKLEAVQYKTQVVVLRWQWGYLGTNYYIKVRAGDNKYMHLKVFKSLQLLYEDNDEDLVLTGYQVDKNKDDELTGF
notes: His-tagged
B32: Clone 112 (designed binder)
chain: MIPGGLSEAKPATPEIQEIVDKVKPQLEEKTGETYGKLEAVQYKTQVDRFYHQWHFLGTNYYIKVRAGDNKYMHLKVFKSLDLRAPRNDNEDLVLTGYQVDKNKDDELTGF
notes: His-tagged
B33: Clone 115 (designed binder)
chain: B32 chain
notes: His-tagged
B34: Clone 118 (designed binder)
chain: MIPGGLSEAKPATPEIQEIVDKVKPQLEEKTGETYGKLEAVQYKTQVDVISIPLVWNGTNYYIKVRAGDNKYMHLKVFKSLIFQEYYPHREDLVLTGYQVDKNKDDELTGF
notes: His-tagged
B35: Clone 122 (designed binder)
chain: B34 chain with S51H, L54H, V55Q, N57H, Q84H, Y86P, Y87K, H89P
notes: His-tagged
B36: Clone 121 (designed binder)
chain: MIPGGLSEAKPATPEIQEIVDKVKPQLEEKTGETYGKLEAVQYKTQVDGNFAHERWQGTNYYIKVRAGDNKYMHLKVFKSLYIARDFDWTEDLVLTGYQVDKNKDDELTGF
notes: His-tagged

target: T1, human PD-L1-Fc (R&D Systems) (human, UniProt Q9NZQ7 19-239); assay: soluble Affimer ELISA
T1 construct: Bought from R&D Systems; Biotinylated in-house for the phage selection; also called huPD-L1-Fc; human PD-L1-Fc antigen; not shown: Fc part of the bought fusion
T1 sequence (Q9NZQ7 19-239 limits assumed): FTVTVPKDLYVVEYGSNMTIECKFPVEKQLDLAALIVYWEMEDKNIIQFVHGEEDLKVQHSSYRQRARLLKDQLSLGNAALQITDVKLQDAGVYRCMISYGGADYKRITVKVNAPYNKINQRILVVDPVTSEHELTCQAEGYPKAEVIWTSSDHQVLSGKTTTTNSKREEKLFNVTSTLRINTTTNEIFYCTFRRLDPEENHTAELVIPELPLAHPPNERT

Question: Does B1 bind?
Answer: Result: binds

Question: Does B2 bind?
Answer: Result: binds

Question: Does B3 bind?
Answer: Result: binds

Question: Does B4 bind?
Answer: Result: binds

Question: Does B5 bind?
Answer: Result: binds

Question: Does B6 bind?
Answer: Result: binds

Question: Does B7 bind?
Answer: Result: binds

Question: Does B8 bind?
Answer: Result: binds

Question: Does B9 bind?
Answer: Result: binds

Question: Does B10 bind?
Answer: Result: binds

Question: Does B11 bind?
Answer: Result: binds

Question: Does B12 bind?
Answer: Result: binds

Question: Does B13 bind?
Answer: Result: binds

Question: Does B14 bind?
Answer: Result: binds

Question: Does B15 bind?
Answer: Result: binds

Question: Does B16 bind?
Answer: Result: binds

Question: Does B17 bind?
Answer: Result: binds

Question: Does B18 bind?
Answer: Result: binds

Question: Does B19 bind?
Answer: Result: binds

Question: Does B20 bind?
Answer: Result: binds

Question: Does B21 bind?
Answer: Result: binds

Question: Does B22 bind?
Answer: Result: binds

Question: Does B23 bind?
Answer: Result: binds

Question: Does B24 bind?
Answer: Result: binds

Question: Does B25 bind?
Answer: Result: binds

Question: Does B26 bind?
Answer: Result: binds

Question: Does B27 bind?
Answer: Result: binds

Question: Does B28 bind?
Answer: Result: binds

Question: Does B29 bind?
Answer: Result: binds

Question: Does B30 bind?
Answer: Result: binds

Question: Does B31 bind?
Answer: Result: binds

Question: Does B32 bind?
Answer: Result: binds

Question: Does B33 bind?
Answer: Result: binds

Question: Does B34 bind?
Answer: Result: binds

Question: Does B35 bind?
Answer: Result: binds

Question: Does B36 bind?
Answer: Result: binds
